Source: patent US20180230219A1 (HELIX BIOPHARMA, published 2018)

Biological target: T1, human VEGFR-2/Fc (R&D Systems) (human, UniProt P35968 20-764)
T1 construct: also called recombinant VEGFR2/Fc; VEGFR/Fc; not shown: Fc part of the bought fusion protein (captured by anti-human IgG-Fc in the ELISA)
Assay: SPR, Biacore 3000, human VEGFR-2/Fc immobilized

T1 sequence (P35968 20-764): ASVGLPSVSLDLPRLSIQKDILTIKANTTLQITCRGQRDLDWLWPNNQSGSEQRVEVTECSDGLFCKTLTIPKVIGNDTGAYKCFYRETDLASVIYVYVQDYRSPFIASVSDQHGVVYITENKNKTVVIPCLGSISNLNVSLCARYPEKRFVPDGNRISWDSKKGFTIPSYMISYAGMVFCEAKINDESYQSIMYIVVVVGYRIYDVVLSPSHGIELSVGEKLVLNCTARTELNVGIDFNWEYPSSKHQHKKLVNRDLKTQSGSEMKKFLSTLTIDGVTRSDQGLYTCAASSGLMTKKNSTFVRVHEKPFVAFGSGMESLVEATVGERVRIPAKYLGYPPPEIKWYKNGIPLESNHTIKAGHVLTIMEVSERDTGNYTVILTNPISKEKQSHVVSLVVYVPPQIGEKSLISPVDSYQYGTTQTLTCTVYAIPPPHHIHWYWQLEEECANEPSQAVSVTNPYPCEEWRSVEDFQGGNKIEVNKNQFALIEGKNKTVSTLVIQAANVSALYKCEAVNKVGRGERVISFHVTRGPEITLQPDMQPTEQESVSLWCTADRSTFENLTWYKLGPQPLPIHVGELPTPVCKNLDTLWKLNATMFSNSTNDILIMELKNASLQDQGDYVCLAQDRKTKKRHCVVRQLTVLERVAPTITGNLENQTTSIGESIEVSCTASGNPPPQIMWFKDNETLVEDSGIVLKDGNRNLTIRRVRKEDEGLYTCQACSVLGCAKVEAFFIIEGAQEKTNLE

B1: AB4 with linker 2; VR2-38 (SEQ ID NO:27) (VHH)
VHH: QVKLEESGGGLVQAGGSLRLSCAASGGTASSYAMGWFRQAPGKEREFVAAISRSGGNTDYVDSAKGRFTISRDDAKNTVSLQMNSLRLEDTAVYYCAARYAGTWPNDAGTVYWLPPNYNYWGQGTQVTVSS
Q: How did the Kd turn out when B1 was run?
A: The Kd was 80 nM.

Q: And the koff?
A: Its koff is 0.015 s⁻¹.
